Our source for the cellular delivery of FLuc mRNA (luminescence), fold against control LNP values is US20260274944A1.

For this experiment, the target named is RAGE (the receptor of interest on CHO cell lines; human or mouse not told). As to the kind of experiment: cell-based or functional assay.

B1: VHH 5-LNP (protein)
VHH: EVQLVESGGGLVQPGGSLRLSCAASGTIFSLNPMGWYRQAPGKQLELVALISDSGTANYADFVRGRFTISRDTTKKTLYLQMNSLEPEDTAVYYCRSTFAAGNFYWGQGTQVTVSS
modifications: here or on the partner: BCN (bicyclo[6.1.0]nonyne) selectively conjugated to the VHH and clicked to DOPE-PEG2000-N3 on the surface of a lipid nanoparticle loaded with luciferase mRNA
In turn, B1 gave a cellular delivery of FLuc mRNA (luminescence), fold against control LNP of 3 to 5 fold.
